This is an account of results in patent publication US12365732 (23ANDME, dated 2025).

T1: cynomolgus monkey CD96 on cynomolgus monkey PBMCs (cynomolgus monkey, UniProt A0A2K5TWV6 22-569)
T1 construct: whole, on cells
T1 sequence: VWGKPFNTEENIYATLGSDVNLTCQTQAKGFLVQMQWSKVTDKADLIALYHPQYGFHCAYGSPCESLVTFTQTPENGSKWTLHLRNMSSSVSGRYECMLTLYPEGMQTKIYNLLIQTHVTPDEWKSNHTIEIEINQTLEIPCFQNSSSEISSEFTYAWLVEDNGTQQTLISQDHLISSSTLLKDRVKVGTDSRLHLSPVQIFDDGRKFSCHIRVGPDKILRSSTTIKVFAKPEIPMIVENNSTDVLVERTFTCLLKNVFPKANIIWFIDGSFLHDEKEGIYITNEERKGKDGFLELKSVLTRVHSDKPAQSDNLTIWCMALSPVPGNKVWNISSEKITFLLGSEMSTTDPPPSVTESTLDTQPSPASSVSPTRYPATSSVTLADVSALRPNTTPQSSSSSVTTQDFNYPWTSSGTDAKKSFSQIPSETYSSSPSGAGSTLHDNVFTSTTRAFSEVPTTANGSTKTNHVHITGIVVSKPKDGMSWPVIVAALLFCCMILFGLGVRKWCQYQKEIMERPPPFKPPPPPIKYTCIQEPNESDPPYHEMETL

T2: hu-CD96 isoform 2 on CHO cells (human, UniProt P40200 22-585)
T2 construct: also called CHO-CD96 (isoform 2); CD96-CHOs
T2 sequence: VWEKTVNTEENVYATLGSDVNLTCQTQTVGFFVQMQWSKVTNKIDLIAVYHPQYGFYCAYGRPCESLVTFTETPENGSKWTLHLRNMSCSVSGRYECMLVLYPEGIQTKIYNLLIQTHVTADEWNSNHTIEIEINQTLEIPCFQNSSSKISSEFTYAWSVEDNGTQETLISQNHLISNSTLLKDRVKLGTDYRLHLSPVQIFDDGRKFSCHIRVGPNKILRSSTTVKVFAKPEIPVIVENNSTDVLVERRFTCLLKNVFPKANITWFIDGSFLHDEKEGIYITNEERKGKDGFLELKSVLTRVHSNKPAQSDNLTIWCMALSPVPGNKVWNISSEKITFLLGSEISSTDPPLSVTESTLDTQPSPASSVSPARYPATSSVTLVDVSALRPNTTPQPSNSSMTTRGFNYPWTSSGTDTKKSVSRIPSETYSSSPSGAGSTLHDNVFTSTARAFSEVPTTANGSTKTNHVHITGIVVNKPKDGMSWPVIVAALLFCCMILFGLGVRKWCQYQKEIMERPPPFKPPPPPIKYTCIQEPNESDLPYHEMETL

B1: h10G1 IgG (humanized 10G1) (antibody, V domains shown)
VH: EIQLVQSGSELKKPGASVKVSCKASGYPFTTYGMSWVRQAPGQGLEWMGWINTDSGVPTYADDFKGRFVFSLDTSVSTAYLQISSLKAEDTAVYFCARNIYYGWGNFDYWGQGTLVTVSS
VL: EIVMTQSPDFQSVTPKEKVTITCRASQDIYRNLHWYQQKPDQTPKLLIKHASDSISGIPSRFSGSGSGTDFTLTINSLEAEDAAAYYCLQGYSMPYTFGGGTKVEIKG
notes: human IgG1 N297G
B2: mAb1.v7.NGS9 IgG (antibody, V domains shown)
VH: EVQLVQSGAEVKKPGASVKVSCKASGFTFTNNFMHWVRQAPGQGLEWIGMIHANSGITNINEKFKNRVTMTTDTSTSTAYMELRSLRSEDTAVYYCRSDGVYEGYFDYWGQGTLVTVSS
VL: DIQLTQSPSSLSASVGDRVTITCKASQNVGTAIVWYQQKPGKAPKVLIYSASTRYTGVPSRFSGSGSGTDFTLTISSLQPEDFATYYCQQYSSSPLTFGQGTKVEIKG
notes: human IgG1 N297G
B3: mAb1.v7.NGS10 IgG (antibody, V domains shown)
VH: B2 VH with M50F, V101I
VL: B2 VL
notes: human IgG1 N297G
B4: mAb1.v7.NGS11 IgG (antibody, V domains shown)
VH: B2 VH with M50F
VL: B2 VL
notes: human IgG1 N297G
B5: 7E5, purified hybridoma antibody (antibody, V domains shown)
VH: QVQLKESGPGLVAPSQSLSIICTVSGFSLTNYGIHWIRQPPGKGLEWLGIIWAGGSTNYNSALMSRLTISKDNSKSQVFLKMNSLQTNDTAIYYCARVSMMGFAYWGQGTLVTVSA
VL: QAVVTQESALTTSPGETVTLTCRSSTGAVTTSNYANWVQEKPDHLFTGLIGGTNNRAPGVPARFSGSLIGDKAALTITGAQTEDEAIYFCSLWYGSHWVFGGGTKLTVL
notes: murine hybridoma IgG
B6: 9H4, purified hybridoma antibody (antibody, V domains shown)
VH: EVQLLETGGGLVKSGGSLKLSCAASGFTFSDYYMYWVRQTPEKRLEWVAAISDDGTYTYYPDSVKGRFTISRDNANNYLYLQMSSLKSEDTAIYYCAKAGSYDYFDVWGAGTTVTVSS
VL: DIVLTQSPASLAVSLGQRAIISCKASQSVTFADTGLMHWYQQKPGQQPKLLIYRASNLEVGVPTRFSGSGSGTDFTLNIHPVEEEDVATYYCQQSREYPWTFGGGTKLEIK
notes: murine hybridoma IgG
B7: mAb1.v7 IgG (humanized 12F8) (antibody, V domains shown)
VH: B2 VH with F33W, A53P, V101T
VL: B2 VL
notes: human IgG1 N297G
B8: 10G1 (clone 10G1.3G8), purified hybridoma antibody (antibody, V domains shown)
VH: QIQLVQSGPELKKPGETVKISCKASGYPFTTYGMSWVKQAPGKGLKWMGWINTDSGVPTYADDFKGRFAFSLETSANTAYLQINSLKNEDAATYFCARNIYYGWGNFDYWGQGTILTVSS
VL: DILMTQSPTTLSVTPGETVSLSCRASQDIYRNLHWYQQKSQGTPRLLIKHASDSISGIPSRFTGSGSGTDFTLSINSVKPEDEGIYYCLQGYSMPYTFGGGTKLEIK
notes: murine hybridoma IgG

Numbering of substitutions follows the chain as printed. Numbers in names are those of the source.

The target of the first assay is T1, cynomolgus monkey CD96 on cynomolgus …. Description: FACS, Ab 0.128 nM. The method, then:
(§1) The ability of the anti-CD96 antibodies to bind primary immune cells from human and cynomolgus monkey with lower level of receptor expression was measured. Human PBMCs (StemCell Technologies, catalog #70025) and cynomolgus monkey PBMCs (Primate Biologicals, catalog #CM-MC) were incubated with human TruStain FcX (Biolegend, catalog #422302) for 10 minutes at 4° C., followed by incubation with an anti-CD96 antibody for 20 minutes at 4° C. Cells were washed and the anti-CD96 antibody binding was detected by incubation with anti-mouse IgG-PE (Thermo Fisher, catalog #M30204) or anti-human IgG (Fab) 2-PE (Thermo Fisher, catalog #H10104) for 20 minutes at 4° C. Cells were washed, and immune subtypes were labeled with anti-CD3 (BD, catalog #557705), anti-CD4 (Biolegend, catalog #317424) and anti-CD8 (BD, catalog #557760) for 20 minutes at 4° C. Cell binding was analyzed by flow cytometry with a CytoFLEX (Beckman Coulter). Binding curves were calculated as a percentage of cells positive for bound antibody in the cell type of interest.
Background: Flow cytometry measures light scatter and fluorescence of single cells or particles in a stream.
Consider B1, for which the “% positive” value was found to be 38.2%.

For B2, the “% positive” value is 49.4%.

Regarding B3, the “% positive” value stood at 64.6%.

With B4, the “% positive” value came out at 63.5%.

Another assay shares this target. The experiment in a line: FACS, Ab 0.0256 nM. The method, then:
as §1
Consider B1, for which the “% positive” value was determined as 16.8%.

As for B2, the “% positive” value worked out at 19.7%.

In the case of B3, the “% positive” value came out at 37.2%.

B4: the “% positive” value was found to be 41%.

Another assay has as its target T2, hu-CD96 isoform 2 on CHO cells. The experiment in a line: FACS, % positive curve. The method, then:
Isoform 1 of hu-CD96 (Origene, catalog #RC213845) was transiently expressed in HEK293T cells following standard lipofectamine or Fugene transfection protocol. […] Cells were washed, and binding was detected by incubation with anti-mouse IgG-FITC (Biolegend, catalog #406001) for 20 minutes at 4° C. Cell binding was analyzed by flow cytometry with a CytoFLEX (Beckman Coulter). Binding curves were calculated as a percentage of cells positive for bound antibody.
Isoform 2 of hu-CD96 (DNA construct: Origene, catalog #RC221005) was expressed on a single-cell-clone-derived CHO stable cell line. Binding of the anti-CD96 antibodies to the CHO cells were determined as described above with isoform 1 of hu-CD96.
As for B5, the EC50 worked out at 0.11 nM.

On to B6, for which the EC50 amounted to 0.38 nM.

As to B7, a half-maximal effect (EC50) was put at 0.52 nM.

B8 registered an EC50 of 0.23 nM.

A further assay has the same target. Description: FACS, CD155-Fc-FLAG 10 nM, Ab 100 nM. The procedure:
CHO cells stably expressing isoform 2 of hu-CD96 (Origene, catalog #RC221005) were incubated with anti-CD96 antibodies for 20 minutes at 4° C. The cells were washed, and then incubated with 10 nM human CD155-Fc-FLAG for 30 minutes at 4° C. Cells were washed, and then human CD155-Fc-FLAG binding was detected by incubation with anti-FLAG-APC (Columbia Biosciences, catalog #D3-1718-1MG) for 20 minutes at 4° C. Cell binding was analyzed by flow cytometry with a CytoFLEX (Beckman Coulter). CD155 binding is represented as median fluorescence intensity (MedFI).
As shown in Table 20 (below), the anti-CD96 antibodies, mAb1.v7.NGS8, mAb1.v7.NGS9, mAb1.v7.NGS10, mAb1.v7.NGS11, and h10G1 inhibited soluble hu-CD155 binding to CD96-expressing CHO cells dose-dependently and potently. The antibody NK92.39 (Fuchs et al., 2004; Biolegend catalog #338405) inhibited receptor binding similarly.
For B1, the “CD155-Fc binding (MedFI)” value was 5120 MedFI.

As for B2, the “CD155-Fc binding (MedFI)” value turned out to be 4140 MedFI.

For B3, the “CD155-Fc binding (MedFI)” value amounted to 5110 MedFI.

For the molecule B4, the “CD155-Fc binding (MedFI)” value is 4210 MedFI.

One may read the EC50 as the concentration at which the effect is half-maximal.
